Measurements taken from patent publication US6140490.

Molecular target: Complement C1q (Homo sapiens) (UniProt P02745+P02746+P02747)
Experiment: filter
Conditions: 2'-NH2 C and U; MgPBS, 37 C; starting pool

Sequence of Complement C1q (Homo sapiens) (P02745 23-245, chain 1 of 3): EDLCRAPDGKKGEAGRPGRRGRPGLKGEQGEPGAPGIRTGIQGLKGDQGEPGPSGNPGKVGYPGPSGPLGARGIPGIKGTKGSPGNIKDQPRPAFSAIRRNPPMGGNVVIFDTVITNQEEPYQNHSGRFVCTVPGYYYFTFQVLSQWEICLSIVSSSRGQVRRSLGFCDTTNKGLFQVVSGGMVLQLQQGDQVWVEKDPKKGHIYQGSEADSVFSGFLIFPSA
Sequence of Complement C1q (Homo sapiens) (P02746 28-253, chain 2 of 3): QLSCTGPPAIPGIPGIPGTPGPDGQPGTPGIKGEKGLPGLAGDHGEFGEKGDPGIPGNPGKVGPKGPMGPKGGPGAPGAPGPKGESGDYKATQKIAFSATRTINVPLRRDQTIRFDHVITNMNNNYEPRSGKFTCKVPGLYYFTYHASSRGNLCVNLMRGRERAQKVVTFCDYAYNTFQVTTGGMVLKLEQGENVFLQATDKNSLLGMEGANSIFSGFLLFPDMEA
Sequence of Complement C1q (Homo sapiens) (P02747 29-245, chain 3 of 3): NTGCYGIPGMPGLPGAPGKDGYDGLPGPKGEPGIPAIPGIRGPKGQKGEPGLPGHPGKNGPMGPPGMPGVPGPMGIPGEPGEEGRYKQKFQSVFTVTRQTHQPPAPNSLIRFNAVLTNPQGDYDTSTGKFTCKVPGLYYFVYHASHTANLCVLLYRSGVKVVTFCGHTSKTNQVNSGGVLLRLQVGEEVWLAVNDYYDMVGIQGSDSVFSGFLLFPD

## GGGAGGACGAUGCGGNNNNNNNNNNNNNNNNNNNNNNNNNNNNNNNNNNNNNNNNNNNNNNNNNNCAGACGACUCGCCCGA [random 50N7 2'-NH2 RNA pool]
  Kd: 2300 nM
